# Measurements from PMC5143326.
# Key:
# [1] = target: low density lipoprotein receptor-related protein 1 (LRP1), purified from placenta; assay: SPR; Biacore T100; LRP1 immobilised on CM5 chip at 3.4 fmol/mm2; CCN-2 or its fragments flowed over; 10 mM Hepes pH 7.4, 150 mM NaCl, 5 mM CaCl2, 0.005 % surfactant P20; 25 °C; affinity constants by steady-state analysis
# LRP1 (Homo sapiens) = LRP1 (Homo sapiens) (UniProt Q07954); settings: cited from earlier work
# Chain of UniProt Q07954 (Q07954 20-4544): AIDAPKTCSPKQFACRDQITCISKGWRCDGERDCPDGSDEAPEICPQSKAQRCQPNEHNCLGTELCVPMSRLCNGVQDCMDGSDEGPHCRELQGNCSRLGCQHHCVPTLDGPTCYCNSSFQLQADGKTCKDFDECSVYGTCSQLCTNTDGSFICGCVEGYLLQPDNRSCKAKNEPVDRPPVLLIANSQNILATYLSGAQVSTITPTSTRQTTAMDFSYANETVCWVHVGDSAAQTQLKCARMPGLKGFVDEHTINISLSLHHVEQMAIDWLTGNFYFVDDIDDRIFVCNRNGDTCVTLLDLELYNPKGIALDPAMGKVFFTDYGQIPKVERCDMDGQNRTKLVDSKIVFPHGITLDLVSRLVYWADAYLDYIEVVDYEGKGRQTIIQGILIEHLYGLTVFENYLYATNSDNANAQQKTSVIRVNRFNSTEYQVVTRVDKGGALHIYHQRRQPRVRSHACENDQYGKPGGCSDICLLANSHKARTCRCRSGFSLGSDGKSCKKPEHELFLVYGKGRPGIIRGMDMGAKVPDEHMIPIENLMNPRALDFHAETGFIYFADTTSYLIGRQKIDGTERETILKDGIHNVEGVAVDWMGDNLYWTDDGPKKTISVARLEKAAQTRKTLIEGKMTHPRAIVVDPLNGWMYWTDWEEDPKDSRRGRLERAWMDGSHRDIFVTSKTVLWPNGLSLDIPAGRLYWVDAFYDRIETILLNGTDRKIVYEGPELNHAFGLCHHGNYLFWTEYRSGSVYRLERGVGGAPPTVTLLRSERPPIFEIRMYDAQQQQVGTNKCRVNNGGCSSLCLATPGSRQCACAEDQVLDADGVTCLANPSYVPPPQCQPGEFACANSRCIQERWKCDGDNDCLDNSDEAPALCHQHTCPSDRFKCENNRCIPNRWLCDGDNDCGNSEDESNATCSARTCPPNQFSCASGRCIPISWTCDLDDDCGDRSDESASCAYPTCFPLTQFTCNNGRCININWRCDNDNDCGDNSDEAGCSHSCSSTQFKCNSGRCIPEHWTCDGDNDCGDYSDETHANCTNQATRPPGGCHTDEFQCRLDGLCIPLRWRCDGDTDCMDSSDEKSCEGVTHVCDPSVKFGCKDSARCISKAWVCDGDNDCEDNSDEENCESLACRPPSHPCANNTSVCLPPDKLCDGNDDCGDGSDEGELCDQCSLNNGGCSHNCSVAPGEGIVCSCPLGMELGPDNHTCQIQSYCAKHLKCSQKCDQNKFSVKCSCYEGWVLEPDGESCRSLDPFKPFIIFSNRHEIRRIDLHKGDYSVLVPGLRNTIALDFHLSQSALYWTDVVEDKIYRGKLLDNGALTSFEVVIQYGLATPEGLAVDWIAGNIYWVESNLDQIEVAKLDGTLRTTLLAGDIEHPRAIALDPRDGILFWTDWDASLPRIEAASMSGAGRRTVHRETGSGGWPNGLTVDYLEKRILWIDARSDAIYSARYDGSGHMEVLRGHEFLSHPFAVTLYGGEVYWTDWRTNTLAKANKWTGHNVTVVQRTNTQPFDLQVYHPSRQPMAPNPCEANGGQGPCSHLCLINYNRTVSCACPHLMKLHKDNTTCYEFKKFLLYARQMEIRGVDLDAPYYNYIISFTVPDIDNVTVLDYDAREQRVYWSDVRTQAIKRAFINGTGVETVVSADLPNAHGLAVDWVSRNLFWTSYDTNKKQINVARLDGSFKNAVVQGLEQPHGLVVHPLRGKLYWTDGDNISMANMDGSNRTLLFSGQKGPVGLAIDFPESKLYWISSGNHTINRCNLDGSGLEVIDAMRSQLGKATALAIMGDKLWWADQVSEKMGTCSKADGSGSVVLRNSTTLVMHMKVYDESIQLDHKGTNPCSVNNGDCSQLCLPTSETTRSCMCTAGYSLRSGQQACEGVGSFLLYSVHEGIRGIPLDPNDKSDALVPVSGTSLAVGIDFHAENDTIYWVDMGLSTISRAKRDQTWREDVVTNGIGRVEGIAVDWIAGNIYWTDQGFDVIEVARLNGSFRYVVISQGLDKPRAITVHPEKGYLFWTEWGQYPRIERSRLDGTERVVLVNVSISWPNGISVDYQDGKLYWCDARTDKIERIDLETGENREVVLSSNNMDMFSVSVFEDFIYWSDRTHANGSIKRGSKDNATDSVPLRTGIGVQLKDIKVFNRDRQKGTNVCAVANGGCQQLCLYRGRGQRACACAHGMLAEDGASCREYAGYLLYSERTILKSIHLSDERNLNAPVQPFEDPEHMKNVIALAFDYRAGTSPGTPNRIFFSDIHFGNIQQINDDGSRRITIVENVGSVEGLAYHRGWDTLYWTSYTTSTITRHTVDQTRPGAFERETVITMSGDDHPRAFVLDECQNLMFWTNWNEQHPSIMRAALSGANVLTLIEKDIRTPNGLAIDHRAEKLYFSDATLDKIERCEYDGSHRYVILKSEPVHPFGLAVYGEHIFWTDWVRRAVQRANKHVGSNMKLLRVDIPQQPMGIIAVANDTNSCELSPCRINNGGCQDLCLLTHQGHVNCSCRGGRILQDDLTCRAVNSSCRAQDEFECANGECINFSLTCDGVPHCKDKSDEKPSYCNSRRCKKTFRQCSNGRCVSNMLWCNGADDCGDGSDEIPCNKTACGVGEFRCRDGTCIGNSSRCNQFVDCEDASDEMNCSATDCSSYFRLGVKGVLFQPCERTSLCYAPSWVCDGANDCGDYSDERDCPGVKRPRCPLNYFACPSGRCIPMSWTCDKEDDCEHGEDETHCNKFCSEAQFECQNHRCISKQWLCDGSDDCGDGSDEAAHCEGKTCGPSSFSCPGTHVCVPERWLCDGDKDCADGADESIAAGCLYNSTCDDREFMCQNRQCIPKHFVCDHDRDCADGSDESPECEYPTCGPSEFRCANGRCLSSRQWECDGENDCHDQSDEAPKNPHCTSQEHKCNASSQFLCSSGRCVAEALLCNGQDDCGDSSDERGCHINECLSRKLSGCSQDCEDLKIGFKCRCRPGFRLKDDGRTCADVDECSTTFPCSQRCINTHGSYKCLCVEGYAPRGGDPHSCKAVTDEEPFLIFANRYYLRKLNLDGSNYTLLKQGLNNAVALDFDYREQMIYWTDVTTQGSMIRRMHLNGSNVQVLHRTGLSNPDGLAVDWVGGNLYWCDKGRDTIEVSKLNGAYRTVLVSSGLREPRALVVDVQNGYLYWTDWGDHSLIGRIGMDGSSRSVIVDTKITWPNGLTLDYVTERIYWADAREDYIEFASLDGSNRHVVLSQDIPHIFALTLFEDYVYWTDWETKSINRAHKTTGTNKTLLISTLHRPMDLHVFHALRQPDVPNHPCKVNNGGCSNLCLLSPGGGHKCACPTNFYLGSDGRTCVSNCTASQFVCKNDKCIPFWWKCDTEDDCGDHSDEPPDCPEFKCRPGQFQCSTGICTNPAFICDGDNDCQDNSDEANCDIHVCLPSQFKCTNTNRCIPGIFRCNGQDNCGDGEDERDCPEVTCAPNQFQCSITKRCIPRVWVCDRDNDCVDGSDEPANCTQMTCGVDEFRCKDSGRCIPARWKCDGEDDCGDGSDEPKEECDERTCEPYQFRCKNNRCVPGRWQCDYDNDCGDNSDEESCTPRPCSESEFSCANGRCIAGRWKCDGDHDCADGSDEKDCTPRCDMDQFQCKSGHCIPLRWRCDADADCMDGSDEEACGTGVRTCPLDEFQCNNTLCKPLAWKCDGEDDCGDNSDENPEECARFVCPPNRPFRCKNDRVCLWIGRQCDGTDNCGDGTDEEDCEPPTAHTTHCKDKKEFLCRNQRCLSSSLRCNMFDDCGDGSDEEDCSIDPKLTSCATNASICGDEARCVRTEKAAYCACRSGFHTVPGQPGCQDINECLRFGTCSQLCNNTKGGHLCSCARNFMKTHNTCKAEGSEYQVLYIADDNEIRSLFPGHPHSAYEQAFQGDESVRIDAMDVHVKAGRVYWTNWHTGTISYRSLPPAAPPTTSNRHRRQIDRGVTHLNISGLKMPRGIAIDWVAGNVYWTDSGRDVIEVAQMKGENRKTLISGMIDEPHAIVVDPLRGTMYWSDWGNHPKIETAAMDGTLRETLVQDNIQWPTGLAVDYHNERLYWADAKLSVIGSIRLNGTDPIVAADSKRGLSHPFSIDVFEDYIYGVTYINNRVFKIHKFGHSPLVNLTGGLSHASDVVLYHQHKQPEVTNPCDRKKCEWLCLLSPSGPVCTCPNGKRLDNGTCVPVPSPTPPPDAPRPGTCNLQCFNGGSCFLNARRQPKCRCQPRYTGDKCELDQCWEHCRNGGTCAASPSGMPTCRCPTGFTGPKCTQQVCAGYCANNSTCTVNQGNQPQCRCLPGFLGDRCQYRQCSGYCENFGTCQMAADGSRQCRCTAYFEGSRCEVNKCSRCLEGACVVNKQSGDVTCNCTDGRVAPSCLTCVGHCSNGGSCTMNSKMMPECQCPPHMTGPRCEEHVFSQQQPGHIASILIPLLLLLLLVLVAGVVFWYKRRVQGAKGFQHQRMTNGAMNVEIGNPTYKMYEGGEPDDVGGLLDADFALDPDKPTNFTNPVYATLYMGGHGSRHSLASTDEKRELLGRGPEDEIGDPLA
substance,measurement,setting,value
recombinant human full length CCN-2 (connective tissue growth factor) (from UniProt P29279 27-349) (natural protein),Kd,[1],116 nM
RAP (from UniProt P30533),Kd,LRP1 (Homo sapiens),5.4 nM
recombinant human CCN-2 C-terminal fragment (domain 3 and 4) (domain or fragment),Kd,[1],112 nM
